Article PMC3760141 (Cell reports, 2013)

B1: p202 HIN2 (K244-K445) (domain or fragment, mouse, UniProt Q9R002 244-445, looked up)
chain: KLLKESFEGDGYHKGPKQVVALKATKLFTYDSIKSKKMFHATVATDTEFFRVMVFEENLEKKFIPGNTIALSDYFGMYGSLAIHEYSSVSEVKSQNKEDSSSSDERLIEHLKICDLHLQTKERLVDGEFKVYRKSTGNNCICYGIWDDTGAMKVVVSGQLTSVNCEIGNTIRLVCFELTSNADEWFLRSTRYSYMEVIMPEK
B2: mouse AIM2 HIN (domain or fragment, UniProt Q91VJ1 144-341, looked up)
chain: MVAEQEAIREDLQKDPLVVTVLKAINPFECETQEGRQEIFHATVATETDFFFVKVLNAQFKDKFIPKRTIKISNYLWHSNFMEVTSSSVVVDVESNHEVPNNVVKRARETPRISKLKIQPCGTIVNGLFKVQKITEEKDRVLYGIHDKTGTMEVLVLGNPSKTKCEEGDKIRLTFFEVSKNGVKIQLKSGPCSFFKVI

Legend:
[1] = molecular target: the molecule itself; assay: SEC-MALS
[2] = molecular target: B2; assay: ITC
[3] = molecular target: B1; assay: ITC
[4] = molecular target: the molecule itself; assay: cross-linking

Binder | stoichiometry N [1] | also measured
B1 | 4 | stoichiometry N [2]: 2 p202 HIN2 per AIM2 HIN
B2 | – | Kd [3]: 12.6 µM
p202 HIN2 R376E (domain or fragment, mouse, UniProt Q9R002 244-445, looked up) KLLKESFEGDGYHKGPKQVVALKATKLFTYDSIKSKKMFHATVATDTEFFRVMVFEENLEKKFIPGNTIALSDYFGMYGSLAIHEYSSVSEVKSQNKEDSSSSDERLIEHLKICDLHLQTKERLVDGEFKVYEKSTGNNCICYGIWDDTGAMKVVVSGQLTSVNCEIGNTIRLVCFELTSNADEWFLRSTRYSYMEVIMPEK | 2 | –
full-length p202 (purified) (natural protein, mouse, UniProt Q9R002 1-445, looked up) MSNRNLRSSTNSEFSEGQHQTPSSDSSGHGEDQPQASPGPNKKSHTPKKNISKGAVLHEKPMTVMVLTATEPFNYKEGKENMFHATVATESQYYRVKVFNMDLKEKFTENKFITISKYFNSSGILEINETATVSEAAPNQIIEVPKNIIRSAKETLKISKIKELDSGTLIYGVFAVEKKKVNDKSITFKIKDNEDNIKVVWDKKQHNINYEKGDKLQLFSFHLRKGNGKPILHSGNHSFIKGEKLLKESFEGDGYHKGPKQVVALKATKLFTYDSIKSKKMFHATVATDTEFFRVMVFEENLEKKFIPGNTIALSDYFGMYGSLAIHEYSSVSEVKSQNKEDSSSSDERLIEHLKICDLHLQTKERLVDGEFKVYRKSTGNNCICYGIWDDTGAMKVVVSGQLTSVNCEIGNTIRLVCFELTSNADEWFLRSTRYSYMEVIMPEK | 4 | –
p202, endogenous in bone marrow-derived macrophages (natural protein, UniProt Q9R002 1-445, looked up) MSNRNLRSSTNSEFSEGQHQTPSSDSSGHGEDQPQASPGPNKKSHTPKKNISKGAVLHEKPMTVMVLTATEPFNYKEGKENMFHATVATESQYYRVKVFNMDLKEKFTENKFITISKYFNSSGILEINETATVSEAAPNQIIEVPKNIIRSAKETLKISKIKELDSGTLIYGVFAVEKKKVNDKSITFKIKDNEDNIKVVWDKKQHNINYEKGDKLQLFSFHLRKGNGKPILHSGNHSFIKGEKLLKESFEGDGYHKGPKQVVALKATKLFTYDSIKSKKMFHATVATDTEFFRVMVFEENLEKKFIPGNTIALSDYFGMYGSLAIHEYSSVSEVKSQNKEDSSSSDERLIEHLKICDLHLQTKERLVDGEFKVYRKSTGNNCICYGIWDDTGAMKVVVSGQLTSVNCEIGNTIRLVCFELTSNADEWFLRSTRYSYMEVIMPEK | – | stoichiometry N [4]: 4
